According to patent EP3670537A1:

Molecular target: Claudin 18 splice variant 2 (CLDN18.2) (human)
Assay: cell-based or functional assay

in vitro EC50 concentration, CDC on CLDN18.2-transfected CHO-K1 cells: 0.5 µg/mL
lysis rate, CDC on CLDN18.2-transfected CHO-K1 cells, pooled sera from healthy controls with 0.5 µg/ml IMAB362: 64.5%
lysis rate, CDC on CLDN18.2-transfected CHO-K1 cells, pre-infusion serum of patient 0204 with 0.5 µg/ml fresh IMAB362: 93.9%
Substance: IMAB362 (antibody)
in vitro EC80-100, total cytotoxicity assay on NUGC-4 cells with healthy donor PBMCs (E:T 40:1) and 25% serum: 200 µg/mL
specific killing of NUGC-4 cells by IMAB362 in patient serum 28-32 days after administration, all dose groups: > 48%
